Reference: IntAct's records for PubMed 27599036

B1: Ferrochelatase, mitochondrial (Homo sapiens), P22830 (parent)
chain: MRSLGANMAAALRAAGVLLRDPLASSSWRVCQPWRWKSGAAAAAVTTETAQHAQGAKPQVQPQKRKPKTGILMLNMGGPETLGDVHDFLLRLFLDRDLMTLPIQNKLAPFIAKRRTPKIQEQYRRIGGGSPIKIWTSKQGEGMVKLLDELSPNTAPHKYYIGFRYVHPLTEEAIEEMERDGLERAIAFTQYPQYSCSTTGSSLNAIYRYYNQVGRKPTMKWSTIDRWPTHHLLIQCFADHILKELDHFPLEKRSEVVILFSAHSLPMSVVNRGDPYPQEVSATVQKVMERLEYCNPYRLVWQSKVGPMPWLGPQTDESIKGLCERGRKNILLVPIAFTSDHIETLYELDIEYSQVLAKECGVENIRRAESLNGNPLFSKALADLVHSHIQSNELCSKQLTLSCPLCVNPVCRETKSFFTSQQL

Variants of: B1
Details: with pgrc1_human PGRMC1, O00264
pgrc1_human PGRMC1, O00264, sequence (O00264 whole entry): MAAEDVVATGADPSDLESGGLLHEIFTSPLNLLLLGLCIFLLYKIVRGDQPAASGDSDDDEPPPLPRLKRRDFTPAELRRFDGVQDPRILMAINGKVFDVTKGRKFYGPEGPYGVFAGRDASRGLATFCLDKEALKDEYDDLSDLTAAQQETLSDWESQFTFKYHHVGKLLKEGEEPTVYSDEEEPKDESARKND

effect of a mutation on the interaction | Variant
increasing interaction strength | F110A
disrupting interaction strength | E343K
